Earlier results in PMC5497954.

Biological target: IL2Rβγ (Homo sapiens) (UniProt P14784)
Sequence of UniProt P14784 (P14784 27-240, chain 1 of 2): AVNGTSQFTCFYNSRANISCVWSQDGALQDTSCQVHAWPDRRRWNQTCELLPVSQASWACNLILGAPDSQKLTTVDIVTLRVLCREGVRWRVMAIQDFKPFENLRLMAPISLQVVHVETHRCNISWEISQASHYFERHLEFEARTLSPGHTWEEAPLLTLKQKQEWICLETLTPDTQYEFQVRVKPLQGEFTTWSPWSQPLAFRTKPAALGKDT
Sequence of UniProt P14784 (P31785 23-262, chain 2 of 2, further chain): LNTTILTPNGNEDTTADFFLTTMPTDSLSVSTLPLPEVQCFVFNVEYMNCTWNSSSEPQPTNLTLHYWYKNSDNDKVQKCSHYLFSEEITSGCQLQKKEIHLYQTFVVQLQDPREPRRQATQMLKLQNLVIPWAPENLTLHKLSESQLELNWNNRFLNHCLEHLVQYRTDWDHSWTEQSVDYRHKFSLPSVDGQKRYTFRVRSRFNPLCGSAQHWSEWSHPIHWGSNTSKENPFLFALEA

- Kd: 1 nM
Substance: IL2 (from UniProt P60568)
